According to patent publication US20230042176:

B1: UBE3A, recombinant, as used in the in vitro ubiquitination assay (ubiquitination kit K-230, Boston Biochem) (protein)
chain: MEKLHQCYWKSGEPQSDDIEASRMKRAAAKHLIERYYHQLTEGCGNEACTNEFCASCPTFLRMDNNAAAIKALELYKINAKLCDPHPSKKGASSAYLENSKGAPNNSCSEIKMNKKGARIDFKDVTYLTEEKVYEILELCREREDYSPLIRVIGRVFSSAEALVQSFRKVKQHTKEELKSLQAKDEDKDEDEKEKAACSAAAMEEDSEASSSRIGDSSQGDNNLQKLGPDDVSVDIDAIRRVYTRLLSNEKIETAFLNALVYLSPNVECDLTYHNVYSRDPNYLNLFIIVMENRNLHSPEYLEMALPLFCKAMSKLPLAAQGKLIRLWSKYNADQIRRMMETFQQLITYKVISNEFNSRNLVNDDDAIVAASKCLKMVYYANVVGGEVDTNHNEEDDEEPIPESSELTLQELLGEERRNKKGPRVDPLETELGVKTLDCRKPLIPFEEFINEPLNEVLEMDKDYTFFKVETENKFSFMTCPFILNAVTKNLGLYYDNRIRMYSERRITVLYSLVQGQQLNPYLRLKVRRDHIIDDALVRLEMIAMENPADLKKQLYVEFEGEQGVDEGGVSKEFFQLVVEEIFNPDIGMFTYDESTKLFWFNPSSFETEGQFTLIGIVLGLAIYNNCILDVHFPMVVYRKLMGKKGTFRDLGDSHPVLYQSLKDLLEYEGNVEDDMMITFQISQTDLFGNPMMYDLKENGDKIPITNENRKEFVNLYSDYILNKSVEKQFKAFRRGFHMVTNESPLKYLFRPEEIELLICGSRNLDFQALEETTEYDGGYTRDSVLIREFWEIVHSFTDEQKRLFLQFTTGTDRAPVGGLGKLKMIIAKNGPDTERLPTSHTCFNVLLLPEYSSKEKLKERLLKAITYAKGFGML
B2: Ube3a, endogenous, in primary mouse cortical neurons (WT against Ube3a m-/p+ mice) (protein)
chain: MATACKRSPGESQSEDIEASRMKRAAAKHLIERYYHQLTEGCGNEACTNEFCASCPTFLRMDNNAAAIKALELYKINAKLCDPHPSKKGASSAYLENSKGASNNSEIKMNKKEGKDFKDVIYLTEEKVYEIYEFCRESEDYSPLIRVIGRIFSSAEALVLSFRKVKQHTKEELKSLQEKDEDKDEDEKEKAACSAAAMEEDSEASSSRMGDSSQGDNNVQKLGPDDVTVDIDAIRRVYSSLLANEKLETAFLNALVYLSPNVECDLTYHNVYTRDPNYLNLFIIVMENSNLHSPEYLEMALPLFCKAMCKLPLEAQGKLIRLWSKYSADQIRRMMETFQQLITYKVISNEFNSRNLVNDDDAIVAASKCLKMVYYANVVGGDVDTNHNEEDDEEPIPESSELTLQELLGDERRNKKGPRVDPLETELGVKTLDCRKPLISFEEFINEPLNDVLEMDKDYTFFKVETENKFSFMTCPFILNAVTKNLGLYYDNRIRMYSERRITVLYSLVQGQQLNPYLRLKVRRDHIIDDALVRLEMIAMENPADLKKQLYVEFEGEQGVDEGGVSKEFFQLVVEEIFNPDIGMFTYDEATKLFWFNPSSFETEGQFTLIGIVLGLAIYNNCILDVHFPMVVYRKLMGKKGTFRDLGDSHPVLYQSLKDLLEYEGSVEDDMMITFQISQTDLFGNPMMYDLKENGDKIPITNENRKEFVNLYSDYILNKSVEKQFKAFRRGFHMVTNESPLKYLFRPEEIELLICGSRNLDFQALEETTEYDGGYTRESVVIREFWEIVHSFTDEQKRLFLQFTTGTDRAPVGGLGKLKMIIAKNGPDTERLPTSHTCFNVLLLPEYSSKEKLKERLLKAITYAKGFGML

Assays:
[1] = target: Flag-tagged BK (Flag-BK), overexpressed in HEK293 cells
[2] = target: BK, endogenous, in primary mouse cortical neurons, Q08460
Chain of BK, endogenous, in primary mouse cortical neurons, Q08460 (Q08460 whole entry): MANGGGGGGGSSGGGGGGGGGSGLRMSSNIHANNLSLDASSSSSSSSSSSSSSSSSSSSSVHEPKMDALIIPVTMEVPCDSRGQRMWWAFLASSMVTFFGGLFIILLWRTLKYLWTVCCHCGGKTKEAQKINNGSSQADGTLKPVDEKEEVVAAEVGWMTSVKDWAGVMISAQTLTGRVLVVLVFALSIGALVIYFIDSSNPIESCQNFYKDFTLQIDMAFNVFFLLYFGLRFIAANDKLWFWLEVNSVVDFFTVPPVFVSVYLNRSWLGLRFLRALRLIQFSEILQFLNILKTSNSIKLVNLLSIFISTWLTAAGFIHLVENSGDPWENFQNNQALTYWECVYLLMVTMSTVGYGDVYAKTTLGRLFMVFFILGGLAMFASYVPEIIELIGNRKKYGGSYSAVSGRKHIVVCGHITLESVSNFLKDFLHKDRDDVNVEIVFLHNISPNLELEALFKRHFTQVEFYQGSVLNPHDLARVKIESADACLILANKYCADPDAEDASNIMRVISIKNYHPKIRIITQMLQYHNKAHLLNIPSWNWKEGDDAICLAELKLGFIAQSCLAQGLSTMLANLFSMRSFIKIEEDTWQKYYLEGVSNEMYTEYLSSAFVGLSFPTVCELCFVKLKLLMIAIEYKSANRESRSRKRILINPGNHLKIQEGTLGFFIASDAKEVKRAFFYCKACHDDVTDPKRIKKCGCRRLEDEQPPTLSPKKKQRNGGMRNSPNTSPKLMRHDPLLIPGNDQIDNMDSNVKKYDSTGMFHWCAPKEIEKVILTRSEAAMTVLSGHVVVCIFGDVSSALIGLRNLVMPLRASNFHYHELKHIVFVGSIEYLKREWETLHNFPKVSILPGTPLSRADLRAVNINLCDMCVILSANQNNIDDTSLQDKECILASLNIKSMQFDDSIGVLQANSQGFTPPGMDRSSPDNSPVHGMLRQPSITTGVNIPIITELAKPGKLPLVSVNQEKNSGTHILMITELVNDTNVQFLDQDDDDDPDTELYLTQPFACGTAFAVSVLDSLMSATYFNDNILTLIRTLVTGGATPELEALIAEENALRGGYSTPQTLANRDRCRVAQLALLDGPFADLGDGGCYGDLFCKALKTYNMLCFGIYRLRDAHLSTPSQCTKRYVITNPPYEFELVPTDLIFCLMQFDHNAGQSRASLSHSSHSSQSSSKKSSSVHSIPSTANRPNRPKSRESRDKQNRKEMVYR

Protein	in vitro ubiquitination assay (E1 Ube1, E2 UbcH5c, HA-Ub) [1]	endogenous BK ubiquitination (BK IP, ubiquitin antibody blot, primary mouse cortical neurons) [2]
B1	BK ubiquitination by UBE3A was further confirmed by an in vitro ubiquitination assay using recombinant proteins (FIG. 11C)	–
B2	–	BK ubiquitination by UBE3A was further confirmed ... by assessing endogenous BK ubiquitination using mouse cortical neurons derived from either WT or Ube3a^m-/p+ mice (FIGS. 11D-11E)
